B1: Lys80 RAD51 (residues 80-339) (domain or fragment)
chain: KLVPMGFTTATEFHQRRSEIIQITTGSKELDKLLQGGIETGSITEMFGEFRTGKTQICHTLAVTCQLPIDRGGGEGKAMYIDTEGTFRPERLLAVAERYGLSGSDVLDNVAYARAFNTDHQTQLLYQASAMMVESRYALLIVDSATALYRTDYSGRGELSARQMHLARFLRMLLRLADEFGVAVVITNQVVAQVDGAAMFAADPKKPIGGNIIAHASTTRLYLRKGRGETRICKIYDSPCLPEAEAMFAINADGVGDAKD

What was measured:
SEC = target: the molecule itself; test: SEC
[1] = target: B1; test: pull-down
Full-length human RAD51 = target: T1, Full-length human RAD51 (human, UniProt Q06609 1-339); test: cross-linking
T1 sequence: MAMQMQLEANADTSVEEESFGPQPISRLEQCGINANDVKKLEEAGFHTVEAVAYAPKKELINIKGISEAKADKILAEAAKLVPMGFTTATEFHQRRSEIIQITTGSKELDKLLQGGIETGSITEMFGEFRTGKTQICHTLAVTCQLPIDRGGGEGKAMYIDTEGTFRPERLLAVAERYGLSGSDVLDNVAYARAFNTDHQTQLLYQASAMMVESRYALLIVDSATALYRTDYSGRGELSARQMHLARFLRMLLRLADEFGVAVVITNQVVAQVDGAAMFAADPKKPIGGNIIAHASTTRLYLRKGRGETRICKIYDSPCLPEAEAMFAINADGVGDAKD

B1
binding result (SEC): binds

EKIKEPTLLGFHTASGKKVKIAKESLDKVKNLFDE (biotin on the N-terminus) [BRC4 peptide (human BRCA2 residues 1,514-1,548), biotinylated]
binding result [1]: binds | binding result (Full-length human RAD51): binds

— article PMC2096194 (Nature structural & molecular biology, 2007)
